Assay results published in article PMC2680336.

Target: Ect2 (UniProt Q9H8V3)
Experiment: anti-myc IP, anti-FLAG blot
Settings: reference: wild-type FLAG-HsCYK-4; sites S157

binding against the reference: weaker
Substance: HsCYK-4 (MgcRacGAP) (from UniProt Q9H0H5) S157A
